The supplement of paper PMC9732359
± gives the uncertainty stated by the source.

Experiment: protein stability index of a GFP-peptide fusion (yeast GPS) (PSI 1-4); higher = more stable; sorted into four equal gates, so the index is relative within each strain
Procedure, shortened: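 Mid-log yeast cultures in leucine-free medium, carrying a pooled plasmid library, were sorted into four equal gates by their GFP/Cherry fluorescence ratio. Each plasmid expressed Cherry along with GFP fused upstream of a tiled 17-residue yeast protein peptide. Plasmids recovered from each gate were PCR-amplified and Illumina-sequenced, with reads assigned to strains by barcodes. The protein stability index was obtained by summing each gate's read frequency weighted by its gate number.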

Sequence | protein stability index (doa10∆) | protein stability index (pdr5∆) | protein stability index (san1∆) | protein stability index (ubr1∆)
MAPNTSRKQKIAKTFTV [RPL22A] | 2.15 ± 0.17 | 2.03 ± 0.089 | 2.61 ± 0.13 | 2.03 ± 0.092
GIHDGHIKKLLHQYYGD [FAS1] | 1.44 ± 0.045 | 1.8 ± 0.051 | 1.85 ± 0.098 | 1.31 ± 0.03
KVGYTLPSHIISTSDVT [RPL4A] | 2.49 ± 0.048 | 2.69 ± 0.043 | 2.58 ± 0.039 | 2.5 ± 0.035
SNSSELEPDYQAPFSTS [MED1] | 2.7 ± 0.044 | 2.97 ± 0.057 | 2.82 ± 0.073 | 3.05 ± 0.046
SDDIAENDNLDNVSKNA [YCG1] | 3.39 ± 0.088 | 3.34 ± 0.14 | 3.25 ± 0.063 | 3.23 ± 0.085
VSAAEDESLIRELYKYV [PRP28] | 3.27 ± 0.11 | 3.27 ± 0.13 | 2.95 ± 0.084 | 2.94 ± 0.098
LKWVAVVPDLGHLNGHT [SSN2] | 3.12 ± 0.07 | 3.13 ± 0.058 | 3.1 ± 0.048 | 3.16 ± 0.054
FARLSRLLSLWEVFQMA [RPC82] | 1.9 ± 0.11 | 1.97 ± 0.096 | 2.86 ± 0.13 | 2.08 ± 0.051
DPDKLKPNDLVGVNKDS [RPT5] | 3.18 ± 0.11 | 3.32 ± 0.13 | 3.34 ± 0.055 | 3.41 ± 0.098
STMKENKDLSELVIRLE [YIL149C/MLP2] | 3.08 ± 0.08 | 3.1 ± 0.082 | 3.16 ± 0.065 | 3.09 ± 0.069
SFSLTVSKEQFLKDADV [YJL039C/NUP192] | 1.47 ± 0.041 | 1.45 ± 0.056 | 1.54 ± 0.11 | 1.64 ± 0.045
CKDDVQLQKILESLKPI [MTW1] | 3.11 ± 0.11 | 2.94 ± 0.089 | 2.79 ± 0.06 | 2.87 ± 0.07
ALFFDPSLNPIPHFIDN [PRP8] | 2.64 ± 0.058 | 2.77 ± 0.047 | 2.47 ± 0.057 | 2.61 ± 0.04
TYGFLTPNLWAEQPLPV [RPS2] | 1.21 ± 0.056 | 1.38 ± 0.081 | 1.37 ± 0.11 | 1.54 ± 0.059
DTVIIFDTDWNPHQDLQ [SNF2] | 2.93 ± 0.064 | 3.1 ± 0.05 | 3.02 ± 0.033 | 2.84 ± 0.044
RQSSDESDNYRLLPNGS [YML031W/NDC1] | 3.03 ± 0.06 | 2.97 ± 0.06 | 3.13 ± 0.078 | 3.05 ± 0.054
RFNHLVTRLFFICSIIQ [YML031W/NDC1] | 1.22 ± 0.046 | 1.29 ± 0.039 | 1.32 ± 0.086 | 1.49 ± 0.039
AGIPIGLKRSQLDEFKN [SWP82] | 2.56 ± 0.084 | 2.22 ± 0.075 | 2.21 ± 0.098 | 1.38 ± 0.055
LQQAKLRESEISQKLTN [SMC3] | 3.18 ± 0.076 | 3.17 ± 0.073 | 3.15 ± 0.087 | 2.97 ± 0.069
FGNSLICEDPETAKKIT [SMC2] | 2.82 ± 0.1 | 2.74 ± 0.084 | 2.62 ± 0.24 | 2.91 ± 0.075
ILGIHTSKMNLSEDVNL [RPT2] | 3.03 ± 0.12 | 3.16 ± 0.081 | 3 ± 0.13 | 3.14 ± 0.067
GISVPFHSTYLMNGVKP [FAS1] | 1.46 ± 0.042 | 1.51 ± 0.04 | 1.27 ± 0.074 | 1.39 ± 0.027
CDSYLDADKELSFEINV [BRR2] | 2.64 ± 0.08 | 2.73 ± 0.062 | 2.92 ± 0.057 | 2.7 ± 0.047
DEEYPVKVKVSYQKLLK [PRP8] | 3.03 ± 0.091 | 1.86 ± 0.078 | 1.91 ± 0.15 | 2.6 ± 0.054
MAATATDKIGRSVPAPG [FAS2] | 2.82 ± 0.081 | 3 ± 0.076 | 3.04 ± 0.073 | 3.01 ± 0.053

Sequence | protein stability index (doa10∆) | protein stability index (pdr5∆) | protein stability index (san1∆) | protein stability index (ubr1∆)
IATDGGRICRPLIIVSD [RET1] | 2.01 ± 0.046 | 2.1 ± 0.037 | 1.73 ± 0.06 | 2.14 ± 0.038
SIVEECDARFDEKTIEE [RPC17] | 2.98 ± 0.14 | 3.05 ± 0.088 | 3.09 ± 0.11 | 2.68 ± 0.21
SSFNKRSKFLSTVAKFL [IRR1] | 2.76 ± 0.052 | 2.28 ± 0.054 | 2.08 ± 0.067 | 2.4 ± 0.035
SVRLFSFLDPLNYGNIC [YJL039C/NUP192] | 1.88 ± 0.053 | 2.21 ± 0.069 | 2.47 ± 0.061 | 2 ± 0.063
IELLSDLINILEKKGFS [LIN1] | 1.22 ± 0.075 | 1.43 ± 0.082 | 1.28 ± 0.17 | 1.35 ± 0.062
SKKIVPSPKKVAIDQDK [SIR4] | 2.73 ± 0.078 | 2.91 ± 0.066 | 2.59 ± 0.06 | 2.92 ± 0.057
NNTHVGRQFCNRLSRIH [YLR018C/POM34] | 2.34 ± 0.12 | 2.69 ± 0.17 | 2.3 ± 0.23 | 1.95 ± 0.089
TSNASMNTTLGSIGSRK [YAR002W/NUP60] | 3.32 ± 0.1 | 3.27 ± 0.11 | 3.37 ± 0.063 | 3.26 ± 0.085
KVPDSTYDMVGGLTKQI [RPT6] | 2.27 ± 0.15 | 2.63 ± 0.17 | 1.93 ± 0.22 | 2.57 ± 0.077
TFLSEWGMEPLEDYVPH [RPB2] | 3.17 ± 0.1 | 3.71 ± 0.23 | 3.13 ± 0.12 | 2.81 ± 0.14
GYVSSLVEPSKVGQFDQ [FAS1] | 1.52 ± 0.082 | 1.94 ± 0.082 | 1.72 ± 0.12 | 1.91 ± 0.078
VINLKQIAKFVVGLGER [RPT1] | 2.75 ± 0.14 | 3.39 ± 0.18 | 3.12 ± 0.3 | 
VSSESSDEAIIPVNKRR [SIR3] | 3.31 ± 0.15 | 2.98 ± 0.12 | 3.02 ± 0.1 | 3.22 ± 0.082
APNNSNGGSEEEITCAL [MED7] | 3.45 ± 0.094 | 3.45 ± 0.13 | 3.42 ± 0.095 | 3.31 ± 0.085
SASSLVITALKEPPRDR [RPL12A] | 2.83 ± 0.062 | 2.97 ± 0.074 | 2.66 ± 0.071 | 2.22 ± 0.052
NSSEEDKKKGQNVTSET [ITC1] | 3.5 ± 0.14 | 3.31 ± 0.17 | 3.06 ± 0.17 | 3.29 ± 0.11
NASDALKGRVVEVCLAD [RPS1B] | 3.34 ± 0.069 | 3.33 ± 0.057 | 3.12 ± 0.051 | 3.03 ± 0.054
FTKYKPARSSSLRSNVV [YAR002W/NUP60] | 1.79 ± 0.046 | 2.44 ± 0.045 | 2.17 ± 0.07 | 2.7 ± 0.04
EASTVPWGDYLQLETPA [BRR2] | 1.42 ± 0.066 | 2.13 ± 0.16 | 2.58 ± 0.14 | 1.53 ± 0.098
VSTKTNEYRLAFYQVTP [RPL22A] | 1.86 ± 0.038 | 2.19 ± 0.04 | 2.6 ± 0.056 | 2.48 ± 0.048
TSFEQGEITFDGIGGLT [RPT4] | 3.1 ± 0.085 | 3.18 ± 0.074 | 3.05 ± 0.066 | 3.49 ± 0.059
QEKQEQQEQDKKKKSNH [PRE6] | 1.97 ± 0.048 | 1.81 ± 0.044 | 2.55 ± 0.06 | 1.65 ± 0.04
KISNSKLLSLLRSKTSA [SIR4] | 2.19 ± 0.058 | 2.45 ± 0.044 | 2.3 ± 0.08 | 2.29 ± 0.055
EFYNEMHRPVHFLQFSE [PRP8] | 2.9 ± 0.086 | 2.51 ± 0.089 | 2.27 ± 0.067 | 2.33 ± 0.058
EAAAVRDLSEASVYPEY [RPS26A] | 2.25 ± 0.076 | 2.53 ± 0.082 | 2.65 ± 0.076 | 2.93 ± 0.09
